According to article PMC7476758, “Underground isoleucine biosynthesis pathways in E. coli” (eLife, 2020):

Key:
Format in all cases: biochemical, Escherichia coli
purified protein [1] = substrate: CCC(=O)SCCNC(=O)CCNC(=O)[C@H](O)C(C)(C)COP(=O)(O)OP(=O)(O)OC[C@H]1O[C@@H](n2cnc3c(N)ncnc32)[C@H](O)[C@@H]1OP(=O)(O)O; assay: purified protein; conditions: glycyl radical (activated by PFL-AE)
[2] = substrate: O=CO; assay: Michaelis-Menten kinetics of purified enzyme, LDH-coupled NADH assay (KM); conditions: glycyl radical (activated by PFL-AE)
[3] = substrate: N[C@@H](CO)C(=O)O; assay: Michaelis-Menten kinetics of purified enzyme, DTNB assay (KM)
[4] = substrate: CC(=O)SCCNC(=O)CCNC(=O)[C@H](O)C(C)(C)COP(=O)(O)OP(=O)(O)OC[C@H]1O[C@@H](n2cnc3c(N)ncnc32)[C@H](O)[C@@H]1OP(=O)(O)O; assay: Michaelis-Menten kinetics of purified enzyme, DTNB assay of released CoA (KM)
[5] = substrate: CCC(=O)SCCNC(=O)CCNC(=O)[C@H](O)C(C)(C)COP(=O)(O)OP(=O)(O)OC[C@H]1O[C@@H](n2cnc3c(N)ncnc32)[C@H](O)[C@@H]1OP(=O)(O)O; assay: Michaelis-Menten kinetics of purified enzyme, LDH-coupled NADH assay (KM); conditions: glycyl radical (activated by PFL-AE)
purified protein [6] = substrate: N[C@@H](CCOC(=O)CCC(=O)O)C(=O)O; assay: purified protein; conditions: pyridoxal-5'-phosphate

B1: pyruvate formate-lyase (PFL, PflB) (Escherichia coli K-12) (protein)
chain: SELNEKLATAWEGFTKGDWQNEVNVRDFIQKNYTPYEGDESFLAGATEATTTLWDKVMEGVKLENRTHAPVDFDTAVASTITSHDAGYINKQLEKIVGLQTEAPLKRALIPFGGIKMIEGSCKAYNRELDPMIKKIFTEYRKTHNQGVFDVYTPDILRCRKSGVLTGLPDAYGRGRIIGDYRRVALYGIDYLMKDKLAQFTSLQADLENGVNLEQTIRLREEIAEQHRALGQMKEMAAKYGYDISGPATNAQEAIQWTYFGYLAAVKSQNGAAMSFGRTSTFLDVYIERDLKAGKITEQEAQEMVDHLVMKLRMVRFLRTPEYDELFSGDPIWATESIGGMGLDGRTLVTKNSFRFLNTLYTMGPSPEPNMTILWSEKLPLNFKKFAAKVSIDTSSLQYENDDLMRPDFNNDDYAIACCVSPMIVGKQMQFFGARANLAKTMLYAINGGVDEKLKMQVGPKSEPIKGDVLNYDEVMERMDHFMDWLAKQYITALNIIHYMHDKYSYEASLMALHDRDVIRTMACGIAGLSVAADSLSAIKYAKVKPIRDEDGLAIDFEIEGEYPQFGNNDPRVDDLAVDLVERFMKKIQKLHTYRDAIPTQSVLTITSNVVYGKKTGNTPDGRRAGAPFGPGANPMHGRDQKGAVASLTSVAKLPFAYAKDGISYTFSIVPNALGKDDEVRKTNLAGLMDGYFHHEASIEGGQHLNVNVMNREMLLDAMENPEKYPQLTIRVSGYAVRFNSLTKEQQQDVITRTFTQSM
Purified protein [1]
  Km: 830 ± 580 µM
  Vmax: 1.1 µmol/min/mg
  kcat: 1.7 ± 0.9 s⁻¹
[2]
  Km: 69000 ± 11000 µM
  Vmax: 0.59 µmol/min/mg
  kcat: 0.9 ± 0.05 s⁻¹

B2: serine acetyltransferase (CysE) (Escherichia coli K-12) (protein)
chain: MSCEELEIVWNNIKAEARTLADCEPMLASFYHATLLKHENLGSALSYMLANKLSSPIMPAIAIREVVEEAYAADPEMIASAACDIQAVRTRDPAVDKYSTPLLYLKGFHALQAYRIGHWLWNQGRRALAIFLQNQVSVTFQVDIHPAAKIGRGIMLDHATGIVVGETAVIENDVSILQSVTLGGTGKSGGDRHPKIREGVMIGAGAKILGNIEVGRGAKIGAGSVVLQPVPPHTTAAGVPARIVGKPDSDKPSMDMDQHFNGINHTFEYGDGI
[3]
  Km: 800 ± 300 µM
[4]
  Km: 600 ± 200 µM

B3: TdcE (2-ketobutyrate formate-lyase) (Escherichia coli K-12) (protein)
chain: MKVDIDTSDKLYADAWLGFKGTDWKNEINVRDFIQHNYTPYEGDESFLAEATPATTELWEKVMEGIRIENATHAPVDFDTNIATTITAHDAGYINQPLEKIVGLQTDAPLKRALHPFGGINMIKSSFHAYGREMDSEFEYLFTDLRKTHNQGVFDVYSPDMLRCRKSGVLTGLPDGYGRGRIIGDYRRVALYGISYLVRERELQFADLQSRLEKGEDLEATIRLREELAEHRHALLQIQEMAAKYGFDISRPAQNAQEAVQWLYFAYLAAVKSQNGGAMSLGRTASFLDIYIERDFKAGVLNEQQAQELIDHFIMKIRMVRFLRTPEFDSLFSGDPIWATEVIGGMGLDGRTLVTKNSFRYLHTLHTMGPAPEPNLTILWSEELPIAFKKYAAQVSIVTSSLQYENDDLMRTDFNSDDYAIACCVSPMVIGKQMQFFGARANLAKTLLYAINGGVDEKLKIQVGPKTAPLMDDVLDYDKVMDSLDHFMDWLAVQYISALNIIHYMHDKYSYEASLMALHDRDVYRTMACGIAGLSVATDSLSAIKYARVKPIRDENGLAVDFEIDGEYPQYGNNDERVDSIACDLVERFMKKIKALPTYRNAVPTQSILTITSNVVYGQKTGNTPDGRRAGTPFAPGANPMHGRDRKGAVASLTSVAKLPFTYAKDGISYTFSIVPAALGKEDPVRKTNLVGLLDGYFHHEADVEGGQHLNVNVMNREMLLDAIEHPEKYPNLTIRVSGYAVRFNALTREQQQDVISRTFTQAL
[5]
  Km: 520 ± 81 µM
  Vmax: 2.1 µmol/min/mg
  kcat: 3.2 ± 0.2 s⁻¹
[2]
  Km: 20000 ± 3000 µM
  Vmax: 1.8 µmol/min/mg
  kcat: 2.7 ± 0.1 s⁻¹

B4: cystathionine γ-synthase (MetB) (Escherichia coli K-12) (protein)
chain: MTRKQATIAVRSGLNDDEQYGCVVPPIHLSSTYNFTGFNEPRAHDYSRRGNPTRDVVQRALAELEGGAGAVLTNTGMSAIHLVTTVFLKPGDLLVAPHDCYGGSYRLFDSLAKRGCYRVLFVDQGDEQALRAALAEKPKLVLVESPSNPLLRVVDIAKICHLAREVGAVSVVDNTFLSPALQNPLALGADLVLHSCTKYLNGHSDVVAGVVIAKDPDVVTELAWWANNIGVTGGAFDSYLLLRGLRTLVPRMELAQRNAQAIVKYLQTQPLVKKLYHPSLPENQGHEIAARQQKGFGAMLSFELDGDEQTLRRFLGGLSLFTLAESLGGVESLISHAATMTHAGMAPEARAAAGISETLLRISTGIEDGEDLIADLENGFRAANKG
Purified protein [6]
  Km: 600 ± 80 µM
